Experimental data: the supplement of paper PMC6755084

B1: F1*; the commonest letter at each place (parent)
chain: GAGACCGCAACTGAAAAGTTGTTATCACTTGTCGTAAGACACTTTGGATGGGTTGAAGTTCTGCACGTAGAAGCAAAAGGC

Variants of: B1
Assay: fraction ligated after 30 min (ligated reads / total reads); higher = more ligase activity
Conditions: with F1*sub RNA substrate (template-directed ligation), 42 °C
Protocol: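 Chip-synthesised pool of F1* ligase ribozyme variants (all single and double substitutions, single, double and triple deletions in the catalytic core and GAA bulge, plus designed variants) was transcribed with T7 and reacted as a pool with excess substrate F1*sub for 30 min at 42 C in 50 mM EPPS pH 8.5, 25 mM MgCl2. Ligated and unligated bands were separated by PAGE, barcoded by RT and deep sequenced; fraction ligated = ligated reads / total reads per variant, relative activity = FL / FL of wild type (0.826). Sequences are the DNA template of the ribozyme.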

**Q.** GAGACCGCAACTGAAAAGTTGTTATCTCTTGTCGTAAGACATTTTGGATGGGTTGAAGTTCTGCACGTAGAAGCAAAAGGC [A27T C42T] was tested. Which fraction ligated did it give?
**A.** The fraction ligated was 0.822.

**Q.** GAGACCGCAACTGAAAAGTTGTTATCTCTTGTCGTAAGACAATTTGGATGGGTTGAAGTTCTGCACGTAGAAGCAAAAGGC [A27T C42A] was tested. Which fraction ligated did it give?
**A.** Its fraction ligated is 0.809.

**Q.** With GAGACCGCAACTGAAAAGTTGTTATCTCCTGTCGTAAGACACTTTGGATGGGTTGAAGTTCTGCACGTAGAAGCAAAAGGC [A27T T29C] as the variant, how does the fraction ligated read?
**A.** The fraction ligated was 0.807.

**Q.** For GAGACCGCAACTGAAAAGTTGTTATCTCATGTCGTAAGACACTTTGGATGGGTTGAAGTTCTGCACGTAGAAGCAAAAGGC [A27T T29A], which fraction ligated is on record?
**A.** Its fraction ligated is 0.803.

**Q.** How did the fraction ligated turn out when GAGACCGCAACTGAAAAGTTGTTATCTCGTGTCGTAAGACACTTTGGATGGGTTGAAGTTCTGCACGTAGAAGCAAAAGGC [A27T T29G] was run?
**A.** Its fraction ligated is 0.805.

**Q.** For GAGACCGCAACTGAAAAGTTGTTATCTCTTGTCGTAAGACACTTCGGATGGGTTGAAGTTCTGCACGTAGAAGCAAAAGGC [A27T T45C], which fraction ligated is on record?
**A.** Its fraction ligated is 0.762.

**Q.** GAGACCGCAACTGAAAAGTTGTTATCTCTTGTCGTAAGACACTTAGGATGGGTTGAAGTTCTGCACGTAGAAGCAAAAGGC [A27T T45A] was tested. Which fraction ligated did it give?
**A.** Its fraction ligated is 0.783.

**Q.** Which fraction ligated does the source give for GAGACCGCAACTGAAAAGTTGTTATCTCTTGTCGTAAGACACTTTGGATGGGTTGGAGTTCTGCACGTAGAAGCAAAAGGC [A27T A56G] here?
**A.** The fraction ligated was 0.791.

**Q.** For GAGACCGCAACTGAAAAGTTGTTATCTCTTGTCGTAAGACACTTTGGATGGGTTGCAGTTCTGCACGTAGAAGCAAAAGGC [A27T A56C], which fraction ligated is on record?
**A.** The fraction ligated was 0.787.

**Q.** Which fraction ligated does the source give for GAGACCGCAACTGAAAAGTTGTTATCTCTTGTCGTAAGACACTTTGGATGGGTTGTAGTTCTGCACGTAGAAGCAAAAGGC [A27T A56T] here?
**A.** Its fraction ligated is 0.792.

**Q.** Which fraction ligated does the source give for GAGACCGCAACTGAAAAGTTGTTATCTCTTGTCCTAAGACACTTTGGATGGGTTGAAGTTCTGCACGTAGAAGCAAAAGGC [A27T G34C] here?
**A.** Its fraction ligated is 0.795.

**Q.** GAGACCGCAACTGAAAAGTTGTTATCTCTTGTCTTAAGACACTTTGGATGGGTTGAAGTTCTGCACGTAGAAGCAAAAGGC [A27T G34T] was tested. Which fraction ligated did it give?
**A.** Its fraction ligated is 0.771.

**Q.** How did the fraction ligated turn out when GAGACCGCAACTGAAAAGTTGTTATCTCTTGTCATAAGACACTTTGGATGGGTTGAAGTTCTGCACGTAGAAGCAAAAGGC [A27T G34A] was run?
**A.** Its fraction ligated is 0.806.

**Q.** With GAGACCGCAACTGAAAAGTTGTTATCTCTTGTCGTAAGACACTTTGGATGGGTTGACGTTCTGCACGTAGAAGCAAAAGGC [A27T A57C] as the variant, how does the fraction ligated read?
**A.** Its fraction ligated is 0.775.

**Q.** Which fraction ligated does the source give for GAGACCGCAACTGAAAAGTTGTTATCTCTTGTCGTAAGACACTTTGGATGGGTTGATGTTCTGCACGTAGAAGCAAAAGGC [A27T A57T] here?
**A.** The fraction ligated was 0.804.

**Q.** GAGACCGCAACTGAAAAGTTGTTATCTCTTGTCGTAAGACACTTTGGATGGGTTGAGGTTCTGCACGTAGAAGCAAAAGGC [A27T A57G] was tested. Which fraction ligated did it give?
**A.** Its fraction ligated is 0.794.

**Q.** With GAGACCGCAACTGAAAAGTTGTTATCTCTTGTCGTAAGACACTCTGGATGGGTTGAAGTTCTGCACGTAGAAGCAAAAGGC [A27T T44C] as the variant, how does the fraction ligated read?
**A.** Its fraction ligated is 0.775.

**Q.** For GAGACCGCAACTGAAAAGTTGTTATCTCTTGTCGTAAGACACTGTGGATGGGTTGAAGTTCTGCACGTAGAAGCAAAAGGC [A27T T44G], which fraction ligated is on record?
**A.** Its fraction ligated is 0.846.

**Q.** With GAGACCGCAACTGAAAAGTTGTTATCTCTTGTCGTAAGACACTATGGATGGGTTGAAGTTCTGCACGTAGAAGCAAAAGGC [A27T T44A] as the variant, how does the fraction ligated read?
**A.** Its fraction ligated is 0.825.

**Q.** For GAGACCGCAACTGAAAAGTTGTTATCTCTTGTCGTAAAACACTTTGGATGGGTTGAAGTTCTGCACGTAGAAGCAAAAGGC [A27T G38A], which fraction ligated is on record?
**A.** The fraction ligated was 0.811.

**Q.** With GAGACCGCAACTGAAAAGTTGTTATCTCTTGTCGTAACACACTTTGGATGGGTTGAAGTTCTGCACGTAGAAGCAAAAGGC [A27T G38C] as the variant, how does the fraction ligated read?
**A.** The fraction ligated was 0.784.

**Q.** For GAGACCGCAACTGAAAAGTTGTTATCTCTTGTCGTAATACACTTTGGATGGGTTGAAGTTCTGCACGTAGAAGCAAAAGGC [A27T G38T], which fraction ligated is on record?
**A.** Its fraction ligated is 0.799.

**Q.** For GAGACCGCAACTGAAAAGTTGTTATCTCTTGTCGTAAGACACTTTGGATGGGTTCAAGTTCTGCACGTAGAAGCAAAAGGC [A27T G55C], which fraction ligated is on record?
**A.** The fraction ligated was 0.749.

**Q.** How did the fraction ligated turn out when GAGACCGCAACTGAAAAGTTGTTATCTCTTGTCGTAAGACACTTTGGATGGGTTTAAGTTCTGCACGTAGAAGCAAAAGGC [A27T G55T] was run?
**A.** Its fraction ligated is 0.789.

**Q.** With GAGACCGCAACTGAAAAGTTGTTATCTCTTGTCGTAAGACACTTTGGATGGGTTAAAGTTCTGCACGTAGAAGCAAAAGGC [A27T G55A] as the variant, how does the fraction ligated read?
**A.** Its fraction ligated is 0.812.

**Q.** How did the fraction ligated turn out when GAGACCGCAACTGAAAAGTTGTTATCTCTTGCCGTAAGACACTTTGGATGGGTTGAAGTTCTGCACGTAGAAGCAAAAGGC [A27T T32C] was run?
**A.** The fraction ligated was 0.755.

**Q.** With GAGACCGCAACTGAAAAGTTGTTATCTCTTGGCGTAAGACACTTTGGATGGGTTGAAGTTCTGCACGTAGAAGCAAAAGGC [A27T T32G] as the variant, how does the fraction ligated read?
**A.** The fraction ligated was 0.838.

**Q.** How did the fraction ligated turn out when GAGACCGCAACTGAAAAGTTGTTATCTCTTGACGTAAGACACTTTGGATGGGTTGAAGTTCTGCACGTAGAAGCAAAAGGC [A27T T32A] was run?
**A.** Its fraction ligated is 0.874.

**Q.** Which fraction ligated does the source give for GAGACCGCAACTGAAAAGTTGTTATCTCTTATCGTAAGACACTTTGGATGGGTTGAAGTTCTGCACGTAGAAGCAAAAGGC [A27T G31A] here?
**A.** Its fraction ligated is 0.848.

**Q.** For GAGACCGCAACTGAAAAGTTGTTATCTCTTTTCGTAAGACACTTTGGATGGGTTGAAGTTCTGCACGTAGAAGCAAAAGGC [A27T G31T], which fraction ligated is on record?
**A.** Its fraction ligated is 0.862.

**Q.** Which fraction ligated does the source give for GAGACCGCAACTGAAAAGTTGTTATCTCTTCTCGTAAGACACTTTGGATGGGTTGAAGTTCTGCACGTAGAAGCAAAAGGC [A27T G31C] here?
**A.** Its fraction ligated is 0.864.

**Q.** GAGACCGCAACTGAAAAGTTGTTATCTCTTGTCGTAAGACACTTTGGGTGGGTTGAAGTTCTGCACGTAGAAGCAAAAGGC [A27T A48G] was tested. Which fraction ligated did it give?
**A.** The fraction ligated was 0.794.

**Q.** With GAGACCGCAACTGAAAAGTTGTTATCTCTTGTCGTAAGACACTTTGGCTGGGTTGAAGTTCTGCACGTAGAAGCAAAAGGC [A27T A48C] as the variant, how does the fraction ligated read?
**A.** Its fraction ligated is 0.729.

**Q.** For GAGACCGCAACTGAAAAGTTGTTATCTCTTGTCGTAAGACACTTTGGTTGGGTTGAAGTTCTGCACGTAGAAGCAAAAGGC [A27T A48T], which fraction ligated is on record?
**A.** The fraction ligated was 0.787.
